Substrate in data set [1]: O=C1[C@@H](O)[C@H](O)[C@@H](O)[C@H](O)[C@H]1O
The experiment in a line: purified protein. The format is biochemical, Entamoeba histolytica. As to conditions: reverse reaction, NADH as co-substrate (concentration not stated).

Substrate in data set [2]: NC(=O)C1=CN([C@@H]2O[C@H](COP(=O)(O)OP(=O)(O)OC[C@H]3O[C@@H](n4cnc5c(N)ncnc54)[C@H](O)[C@@H]3O)[C@@H](O)[C@H]2O)C=CC1
In words: purified protein. The format is biochemical, Entamoeba histolytica. As to conditions: reverse reaction, keto-2-inositol as presumed co-substrate (concentration not stated); varied: cofactor.

Substrate in data set [3]: NC(=O)c1ccc[n+]([C@@H]2O[C@H](COP(=O)(O)OP(=O)(O)OC[C@H]3O[C@@H](n4cnc5c(N)ncnc54)[C@H](O)[C@@H]3O)[C@@H](O)[C@H]2O)c1
In words: purified protein. Format: biochemical, Entamoeba histolytica. Particulars: 12.5 mM myo-inositol, 10 mM sodium pyrophosphate pH 9, room temperature; pH 9.0; varied: cofactor.

Substrate in data set [4]: O[C@H]1[C@H](O)[C@@H](O)[C@H](O)[C@@H](O)[C@@H]1O
The experiment in a line: purified protein. The format is biochemical, Entamoeba histolytica. As to conditions: 1 mM NAD+, 10 mM sodium pyrophosphate pH 9, room temperature; pH 9.0.

Substrate in data set [5]: NC(=O)c1ccc[n+]([C@@H]2O[C@H](COP(=O)(O)OP(=O)(O)OC[C@H]3O[C@@H](n4cnc5c(N)ncnc54)[C@H](OP(=O)(O)O)[C@@H]3O)[C@@H](O)[C@H]2O)c1
In words: purified protein. The format is biochemical, Entamoeba histolytica. Particulars: 12.5 mM myo-inositol, 10 mM sodium pyrophosphate pH 9, room temperature; pH 9.0; varied: cofactor.

Substrate in data set [6]: O[C@H]1[C@H](O)[C@@H](O)[C@H](O)[C@@H](O)[C@H]1O
In words: purified protein. Format: biochemical, Entamoeba histolytica. As to conditions: 1 mM NAD+, 10 mM sodium pyrophosphate pH 9, room temperature; pH 9.0.

Data set [7] deals with the molecule itself. The experiment in a line: SEC-MALS; enzymatically active myo-IDH, 0.5-2 mg/ml, Agilent Biosec-3 column, 0.3 ml/min, 50 mM phosphate buffer pH 7.0, 300 mM NaCl, 15°C; miniDAWN light scattering, refractive index and UV detectors. (In general: Size exclusion chromatography separates by hydrodynamic size, large species first.)

“And” between values parts separate entries of the source, which are not always exact repeats. Identical values can stand only once.

This is an account of results in article PMC8629394, “Anaerobic peroxisomes in Entamoeba histolytica metabolize myo-inositol” (PLoS Pathogens, 2021).

B1: recombinant 6xHis-tagged E. histolytica myo-inositol dehydrogenase (myo-IDH) (enzyme, Entamoeba histolytica, UniProt C4LVW1 1-316, looked up)
chain: MQSNKVRICLCGTGRLGSFRASLFIESQDIELVGVVEPFRVCQSVLDRPNIKIFKTVEEINIPIDGIWISTPTKFHLQTIKLASKKVKHIYCEKPIASTPEEVKEAYETCRKNGVSLHCGWMRRRDPGYQSIKEYLVSHNVSIQRAEFHSFDWPLVPPEFLKTLGNIFTDLMCHDFNLIMYYMNNTLPKYVTAVGIDGGAGVWDSATASLEYPNNVVLTIIATRNGNKVYDNSLTVLTSDSHILECGKEPENLTETFMKRHEKNFKKELPFFANIIRNNGTSGDVLSCVNTSILIQAATRSATLGGKRIPLVIPKL
notes: myo-inositol dehydrogenase (myo-IDH, EC 1.1.1.18) of Entamoeba histolytica, gene EHI_125740; theoretical weight 36.4 kDa including the 6x-His tag; the natural protein ends in a PTS1 tripeptide; also called putative inositol dehydrogenase; EHI_125740; source: E. coli BL21 Rosetta, pET42b, purified (Ni-NTA agarose, native conditions, imidazole)
As usually defined, the Km is the concentration of substrate that gives half-maximal velocity. One may read the Vmax as the top rate of the reaction or transport when substrate is in excess. For orientation: stoichiometry N means the number of molecules, sites or subunits per partner or assembly. Regarding B1, the Michaelis constant (Km) came to 322 ± 34 µM in “purified protein [1]”; 9 ± 0 µM in “purified protein [2]”; 38 ± 4 µM in “purified protein [3]”; 229 ± 20 µM in the data set “purified protein [4]”; 1201 ± 532 µM in the data set “purified protein [5]”; 44 ± 4 µM in the data set “purified protein [6]”. Further, the Vmax turned out to be 4.41 µmol/min/mg in the data set “purified protein [1]”; 1.64 µmol/min/mg in the data set “purified protein [2]”; 1 µmol/min/mg in “purified protein [3]”; 6.2 µmol/min/mg in the data set “purified protein [4]”; 0.826 µmol/min/mg in the data set “purified protein [5]”; 5.45 µmol/min/mg in the data set “purified protein [6]”. Moreover, the “stoichiometry N” value in data set [7] is 2 and 3.
